Data from the Immune Epitope Database (IEDB).

Key:
[1] = target: HLA-B*44:02; assay: IEDB peptide-MHC binding, purified MHC/competitive/radioactivity; filed as Kd, often an IC50 or EC50 that approximates it; ≥ and ≤ were set here for values at or beyond the usual limits of such assays
[2] = target: HLA-B*45:01; assay: as above
[3] = target: HLA-B*40:01; assay: as above
[4] = target: HLA-B*44:03; assay: as above
[5] = target: HLA-B*40:02; assay: as above
[6] = target: HLA-B*18:01; assay: as above
[7] = target: HLA-A*02:01; assay: IEDB peptide-MHC binding, purified MHC/competitive/fluorescence; ≥ and ≤ were set here for values at or beyond the usual limits of such assays; conditions: source organism: Sudan ebolavirus
[8] = target: HLA-A*24:02; assay: as above; conditions: source organism: Sudan ebolavirus
[9] = target: HLA-A*02:02; assay: IEDB peptide-MHC binding, purified MHC/competitive/radioactivity; filed as Kd, often an IC50 or EC50 that approximates it; ≥ and ≤ were set here for values at or beyond the usual limits of such assays
[10] = target: HLA-A*68:02; assay: as above
[11] = target: HLA-A*02:03; assay: as above
[12] = target: HLA-A*02:06; assay: as above
[13] = target: HLA-A*03:01; assay: IEDB peptide-MHC binding, purified MHC/competitive/fluorescence; filed as Kd, often an IC50 or EC50 that approximates it; ≥ and ≤ were set here for values at or beyond the usual limits of such assays; conditions: source organism: Influenza A virus (A/Fort Monmouth/1/1947-mouse adapted(H1N1))
[14] = target: HLA-A*69:01; assay: IEDB peptide-MHC binding, purified MHC/direct/fluorescence; filed as Kd, often an IC50 or EC50 that approximates it; ≥ and ≤ were set here for values at or beyond the usual limits of such assays
[15] = target: HLA-A*02:01; assay: as above
[16] = target: HLA-A*02:12; assay: as above; conditions: source organism: Ravn virus - Ravn, Kenya, 1987
[17] = source organism: Lymphocytic choriomeningitis virus (strain Armstrong)
[18] = source organism: Mammarenavirus guanaritoense
[19] = source organism: SARS coronavirus Tor2
[20] = source organism: Mammarenavirus machupoense
[21] = source organism: Trypanosoma cruzi
[22] = source organism: Mammarenavirus lassaense
[23] = source organism: Lassa virus Josiah
[24] = source organism: Ebola virus - Mayinga, Zaire, 1976
[25] = source organism: Mammarenavirus brazilense

Question: ADNMITEML was tested. Which Kd [1, 17] did it give?
Answer: 17700 nM

Question: What about the Kd [2, 17] of the same sequence?
Answer: ≥ 77700 nM

Question: What about the Kd [3, 17] of the same sequence?
Answer: 19500 nM

Question: What about the Kd [4, 17] of the same sequence?
Answer: 17800 nM

Question: What about the Kd [5, 17] of the same sequence?
Answer: 1410 nM

Question: What about the Kd [6, 17] of the same sequence?
Answer: ≥ 77500 nM

Question: Which Kd [1, 18] does the source give for AEFTFQLNL here?
Answer: 59.9 nM

Question: What about the Kd [2, 18] of the same sequence?
Answer: 210 nM

Question: And the Kd [3, 18]?
Answer: 66.1 nM

Question: What about the Kd [4, 18] of the same sequence?
Answer: 50.8 nM

Question: And the Kd [5, 18]?
Answer: 0.946 nM

Question: And the Kd [6, 18]?
Answer: 5930 nM

Question: Which Kd [1, 19] does the source give for DEWSVATFYL here?
Answer: 939 nM

Question: And the Kd [2, 19]?
Answer: 1010 nM

Question: And the Kd [3, 19]?
Answer: 1490 nM

Question: And the Kd [4, 19]?
Answer: 356 nM

Question: What about the Kd [5, 19] of the same sequence?
Answer: 119 nM

Question: What about the Kd [6, 19] of the same sequence?
Answer: 77.1 nM

Question: How did the Kd ([1]; source organism: Variola virus) turn out when DKLVDPINY was run?
Answer: ≥ 77900 nM

Question: And the Kd ([2]; source organism: Variola virus)?
Answer: ≥ 77700 nM

Question: And the Kd ([3]; source organism: Variola virus)?
Answer: 15500 nM

Question: And the Kd ([4]; source organism: Variola virus)?
Answer: ≥ 78100 nM

Question: What about the Kd ([5]; source organism: Variola virus) of the same sequence?
Answer: ≥ 77200 nM

Question: And the Kd ([6]; source organism: Variola virus)?
Answer: ≥ 77500 nM

Question: Which results are given for EEAARCMRSL?
Answer: Kd [1, 19]: 164 nM; Kd [2, 19]: 85 nM; Kd [3, 19]: 802 nM; Kd [4, 19]: 406 nM; Kd [5, 19]: 184 nM; Kd [6, 19]: 6890 nM

Question: For EEILGTVSW, which Kd [1, 19] is on record?
Answer: 3.19 nM

Question: What about the Kd [2, 19] of the same sequence?
Answer: 1550 nM

Question: What about the Kd [3, 19] of the same sequence?
Answer: 3080 nM

Question: And the Kd [4, 19]?
Answer: 2.58 nM

Question: And the Kd [5, 19]?
Answer: 378 nM

Question: What about the Kd [6, 19] of the same sequence?
Answer: 78.3 nM

Question: Which Kd [1, 20] does the source give for EEVLDVCPLG here?
Answer: ≥ 70200 nM

Question: What about the Kd [2, 20] of the same sequence?
Answer: 4440 nM

Question: And the Kd [3, 20]?
Answer: 14200 nM

Question: And the Kd [4, 20]?
Answer: ≥ 51100 nM

Question: And the Kd [5, 20]?
Answer: 9750 nM

Question: What about the Kd [6, 20] of the same sequence?
Answer: 4840 nM

Question: How did the IC50 [7] turn out when EGIYTEGLM was run?
Answer: 33400 nM

Question: What about the IC50 [8] of the same sequence?
Answer: 15000 nM

Question: How did the Kd [9, 21] turn out when ELLRPTTLV was run?
Answer: 4030 nM

Question: What about the Kd [10, 21] of the same sequence?
Answer: 87 nM

Question: What about the Kd [11, 21] of the same sequence?
Answer: 1390 nM

Question: And the Kd [12, 21]?
Answer: 2080 nM

Question: Which Kd [13] does the source give for ETMEVVQQTR here?
Answer: ≥ 20000 nM

Question: How did the Kd [14, 22] turn out when FVFSTSFYL was run?
Answer: 1.2 nM

Question: What about the Kd [15, 22] of the same sequence?
Answer: ≤ 1 nM

Question: And the Kd [9, 23]?
Answer: 1.5 nM

Question: And the Kd [10, 23]?
Answer: 0.508 nM

Question: And the Kd [11, 23]?
Answer: 51 nM

Question: And the Kd [12, 23]?
Answer: 13.7 nM

Question: GVSWMIRILI was tested. Which Kd ([10]; source organism: Dengue virus 4 Dominica/814669/1981) did it give?
Answer: 197 nM

Question: For HEFVDEFYA, which Kd [1, 19] is on record?
Answer: 18600 nM

Question: And the Kd [2, 19]?
Answer: 157 nM

Question: And the Kd [3, 19]?
Answer: 1190 nM

Question: What about the Kd [4, 19] of the same sequence?
Answer: 5580 nM

Question: What about the Kd [5, 19] of the same sequence?
Answer: 55 nM

Question: What about the Kd [6, 19] of the same sequence?
Answer: 3010 nM

Question: How did the Kd [1, 19] turn out when IDYRHYSASF was run?
Answer: 5840 nM

Question: And the Kd [2, 19]?
Answer: 978 nM

Question: And the Kd [3, 19]?
Answer: ≥ 44600 nM

Question: What about the Kd [4, 19] of the same sequence?
Answer: ≥ 36500 nM

Question: What about the Kd [5, 19] of the same sequence?
Answer: 2670 nM

Question: What about the Kd [6, 19] of the same sequence?
Answer: ≥ 31500 nM

Question: Which Kd [1, 19] does the source give for IEYSDFATSA here?
Answer: 728 nM

Question: What about the Kd [2, 19] of the same sequence?
Answer: 154 nM

Question: What about the Kd [3, 19] of the same sequence?
Answer: 16700 nM

Question: What about the Kd [4, 19] of the same sequence?
Answer: 658 nM

Question: And the Kd [5, 19]?
Answer: 147 nM

Question: What about the Kd [6, 19] of the same sequence?
Answer: 135 nM

Question: How did the Kd [16] turn out when IISDLSIFI was run?
Answer: 69 nM

Question: And the Kd [14, 24]?
Answer: 32.3 nM

Question: What about the Kd [15, 24] of the same sequence?
Answer: 3 nM

Question: Which results are given for KEPGVSRELL?
Answer: Kd [1, 25]: ≥ 70200 nM; Kd [2, 25]: ≥ 70000 nM; Kd [3, 25]: 1320 nM; Kd [4, 25]: ≥ 70100 nM; Kd [5, 25]: 1060 nM; Kd [6, 25]: ≥ 70400 nM
